Test results published in patent publication US12319742 (SHATTUCK LABS, dated 2025).

Key:
[1] = biological target: T1, biotinylated recombinant human TNFRSF25-His tagged (Acro #TN5-H52H3) (human, UniProt Q93038 25-199, biotinylated); test: MSD plate binding; TNFRSF25 precoated, unpurified scFv supernatant in 2-fold serial dilutions, detection of the C-terminal myc tag
T1 construct: treated as the same protein; also called recombinant biotin-conjugated human TNFRSF25 protein; DR3
T1 sequence (looked up): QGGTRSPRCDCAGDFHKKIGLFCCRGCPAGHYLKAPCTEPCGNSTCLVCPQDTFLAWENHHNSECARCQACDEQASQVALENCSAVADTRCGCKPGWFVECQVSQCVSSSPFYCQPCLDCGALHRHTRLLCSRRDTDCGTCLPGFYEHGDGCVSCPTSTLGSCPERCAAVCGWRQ
From the text: (FIG. 2A) TNFRSF25 was precoated on MSD assay plates followed by adding scFv supernatant at 2-fold serial-dilutions followed by detection of the myc tag present on the C-terminus of the scFv's. (FIG. 2B) scFv supernatant were serially diluted and added to an MSD-plate pre-coated with TNFRSF25.

[2] = biological target: T2, biotinylated recombinant human FcRn-His tagged protein (Acro #FCM-H82W7) (human, UniProt P55899 24-297; P61769 21-119, biotinylated); test: BLI/Octet; biotinylated human FcRn-His on streptavidin biosensor
T2 construct: also called hFcRn; neonatal Fc receptor
Procedure: (§1) Figure 5D: FIG. 5D. FcRn binding kinetics by anti-TNFRSF25 antibodies. BLI assay was performed using the Octet Red 96e instrument. Streptavidin biosensors were loaded with biotinylated recombinant human(h) FcRn-His tagged protein (Acro #FCM-H82W7) as the ligand. During the association phase, biosensors were incubated with anti-DR3 candidate antibodies at various concentrations for 600 seconds, followed by a 600-second dissociation phase.
(§2) To detect binding of certain whole antibodies to the neonatal Fc receptor (FcRn) at neutral and acidic pH conditions, streptavidin biosensors were loaded with biotinylated recombinant human FcRn-His tagged protein (Acro #FCM-H82W7) as the ligand. During the association phase, biosensors were incubated with anti-TNFRSF25 antibodies at various concentrations for 600 seconds, followed by a 600 second dissociation phase.

[3] = biological target: T2, biotinylated recombinant human FcRn-His …; test: BLI/Octet; biotinylated human FcRn-His on streptavidin biosensor; pH 6.0
Procedure: as §1, §2

[4] = biological target: T2, biotinylated recombinant human FcRn-His …; test: BLI/Octet; biotinylated human FcRn-His on streptavidin biosensor; pH 7.4
Procedure: as §1, §2

[5] = biological target: T1, biotinylated recombinant human …; test: MSD competition (lower panel); antibody on TNFRSF25-coated plate, wash, then TL1A-rabbit Fc at 0.4 ug/ml, sulfo-tag anti-rabbit detection; raw MSD signal
Procedure: (§3) Figure 6: FIG. 6. […] Human TNFRSF25 was precoated on MSD assay plates followed by incubating with various concentrations of anti-TNFRSF25 antibodies.

[6] = biological target: FcγR1 (CD64), BLI reagent (UniProt P12314 16-288, limits assumed); test: BLI; antibody as analyte at 300 nM on FcγR1
[7] = biological target: T2, biotinylated recombinant human FcRn-His …; test: BLI/Octet; biotinylated human FcRn-His on streptavidin biosensor; pH 7.4; pH 7.4
Procedure: as §1, §2

[8] = biological target: T1, biotinylated recombinant human …; test: BLI/Octet; biotinylated TNFRSF25 on streptavidin sensor, mAb in solution; 1:1 Langmuir model
From the text: Provided herein are monoclonal and biparatopic antibodies that specifically target human TNFRSF25. The monoclonal antibodies were produced in an engineered CHOK1 cell-line by transfecting the cells with vectors genetically encoding the Heavy and Light chain antibody sequences followed by a single-step affinity-capture chromatography using FcXL resins. The final monoclonal antibody preparation was buffer exchanged into PBS, pH 7.4. Production of biparatopic antibodies followed a two-step process. In the first step of the process, the so called Knob-half (or Hole-half) antibody was produced by transfecting an engineered CHOK1 cell-line with vectors genetically encoding the Knob (or the Hole) Heavy chain and the corresponding Light chain sequences. The CHOK1-cell-harvest from the Knob-half antibody and Hole half-antibody was then purified by Protein A column-based chromatography. In the second step of the process, the two half-antibodies were reassembled into the desired biparatopic format by the use of a mild reduction step followed by quenching the reaction with buffer exchange into PBS, pH 7.4. To detect binding of the antibodies to human TNFRSF25, recombinant biotin-conjugated human TNFRSF25 protein was immobilized onto a streptavidin-coated MSD (Meso Scale Discovery) plate and allowed to bind the anti-TNFRSF25 mAbs in solution. Following a washing step, the bound antibodies were detected using a sulfo-tagged anti-human Fc antibody. The results of these MSD assays are shown in arbitrary units (au) on the y-axis of FIG. 1. To determine the binding affinity of the antibodies to recombinant human TNFRSF25 protein, recombinant biotin-conjugated human TNFRSF25 protein was immobilized onto a streptavidin-coated BLI sensor and allowed to bind the anti-TNFRSF25 mAbs in solution phase. The binding affinity (K_D) was calculated using the on-rates (Ka) and off-rates (Kd) of mAb binding to the target using a 1:1 Langmuir binding model in the ForteBio data analysis software.

[9] = biological target: T3, DcR3 (decoy receptor, recombinant) (UniProt O95407 30-300); test: MSD plate binding; human DcR3 protein immobilized on the plate, sulfo-tag anti-human Fc
T3 construct: also called decoy Receptor, DcR3
T3 sequence (looked up): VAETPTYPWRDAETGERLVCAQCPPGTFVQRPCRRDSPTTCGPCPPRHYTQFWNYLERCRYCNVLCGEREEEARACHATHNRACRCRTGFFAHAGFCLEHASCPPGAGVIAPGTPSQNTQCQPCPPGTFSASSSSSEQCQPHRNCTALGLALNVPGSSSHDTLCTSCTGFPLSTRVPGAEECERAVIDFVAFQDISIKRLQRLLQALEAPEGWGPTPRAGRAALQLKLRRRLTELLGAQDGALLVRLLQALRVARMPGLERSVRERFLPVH

TNFR1 (recombinant) = biological target: T4, TNFR1 (recombinant) (UniProt P19438 30-211, limits assumed); test: MSD plate binding; human TNFR1 protein immobilized on the plate, sulfo-tag anti-human Fc
T4 sequence (looked up): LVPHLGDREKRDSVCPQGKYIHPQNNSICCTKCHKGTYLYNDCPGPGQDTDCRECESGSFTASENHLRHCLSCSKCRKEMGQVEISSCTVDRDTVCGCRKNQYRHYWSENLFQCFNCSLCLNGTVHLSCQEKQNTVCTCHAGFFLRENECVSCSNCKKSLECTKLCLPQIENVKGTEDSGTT

TNFR2 (recombinant) = biological target: T5, TNFR2 (recombinant) (UniProt P20333 23-257, limits assumed); test: MSD plate binding; human TNFR2 protein immobilized on the plate, sulfo-tag anti-human Fc
T5 sequence (looked up): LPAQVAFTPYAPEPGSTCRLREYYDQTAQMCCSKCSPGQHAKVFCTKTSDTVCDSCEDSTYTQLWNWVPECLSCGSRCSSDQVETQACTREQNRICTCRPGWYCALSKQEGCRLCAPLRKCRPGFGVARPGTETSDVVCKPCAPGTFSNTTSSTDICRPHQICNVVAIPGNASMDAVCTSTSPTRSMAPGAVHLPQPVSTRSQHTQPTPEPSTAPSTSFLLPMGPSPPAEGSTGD

[10] = biological target: T1, biotinylated recombinant human …; test: MSD competition; TNFRSF25 on plate, antibody titrated, then TL1A-rabbit Fc 0.4 µg/ml as competitor
Procedure: as §3

[11] = biological target: T1, biotinylated recombinant human …; test: BLI/Octet Red 96e; biotinylated TNFRSF25-His on streptavidin biosensor; 600 s association, 600 s dissociation
Procedure: Figure 4: FIG. 4. TNFRSF25 binding affinity of anti-TNFRSF25 antibodies. BLI assay was performed using the Octet Red 96e instrument. Streptavidin biosensors were loaded with biotinylated recombinant human TNFRSF25-His tagged (Acro #TN5-H52H3) as the ligand. During the association phase, biosensors were incubated with anti-TNFRSF25 antibodies at various concentrations for 600 seconds, followed by a 600-second dissociation phase.
as §2, with “human TNFRSF25,” for “the neonatal Fc receptor (FcRn) at neutral and acidic pH conditions,”, “TNFRSF25-His” for “FcRn-His”, “tagged” for “tagged protein”, “#TN5-H52H3)” for “#FCM-H82W7)”

[12] = biological target: T1, biotinylated recombinant human …; test: BLI/Octet; biotinylated TNFRSF25 on streptavidin sensor, antibody in solution; 1:1 Langmuir model

T2 sequence (P55899 24-297 limits assumed, chain 1 of 2): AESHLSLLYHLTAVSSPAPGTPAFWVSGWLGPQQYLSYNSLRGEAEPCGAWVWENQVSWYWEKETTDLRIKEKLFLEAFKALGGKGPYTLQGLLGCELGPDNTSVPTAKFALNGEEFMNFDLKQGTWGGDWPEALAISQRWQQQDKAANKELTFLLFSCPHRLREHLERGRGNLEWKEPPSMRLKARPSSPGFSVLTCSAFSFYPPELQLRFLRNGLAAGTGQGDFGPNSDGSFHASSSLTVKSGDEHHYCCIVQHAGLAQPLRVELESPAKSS
T2 sequence (P61769 21-119 limits assumed, chain 2 of 2): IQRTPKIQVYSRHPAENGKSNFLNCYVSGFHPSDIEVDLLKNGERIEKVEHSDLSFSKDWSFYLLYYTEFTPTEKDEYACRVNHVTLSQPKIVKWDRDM
FcγR1 (CD64), BLI reagent, sequence (P12314 16-288 limits assumed): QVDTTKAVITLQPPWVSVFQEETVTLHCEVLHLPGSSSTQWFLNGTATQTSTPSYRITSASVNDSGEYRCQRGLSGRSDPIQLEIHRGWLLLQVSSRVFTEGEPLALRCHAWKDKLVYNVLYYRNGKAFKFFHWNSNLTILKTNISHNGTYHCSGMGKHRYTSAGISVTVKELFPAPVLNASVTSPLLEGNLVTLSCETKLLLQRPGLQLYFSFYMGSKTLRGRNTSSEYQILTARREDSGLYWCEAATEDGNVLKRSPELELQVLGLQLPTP

B1: NH24-162 (scFv, not shown: small tags and cut ends)
scFv: EVQLVESGGGSVQPGGSLRLSCAASGFTFSSYGMSWVRQAPGKGLEWISYISSSGGHTYYADSVKGQFTISRDNAKNSLYLQMNSLRAEDTAVYYCARGSGSFDYWGQGTLVTVSSGGRGSGGGGSGSGGSDIVMTQSPSSLSASVGDRVTITCQASQDISNYLSWYQQKPGKAPKLLISDASNLETGVPSRFSGSGSGTDFTFTISSLQPEDIATYYCQQYDNLPITFGQGTRLEIKR
notes: one of the four variants of group m25; used as unpurified E. coli supernatant; the sheet prints NH24-162; also called NH24-162 scFv
binding result [1]: binds

B2: SL-061_YTE (antibody, human IgG1, kappa)
heavy: QVQLQQSGPGLVKPSQTLSLTCAISGDSVSGYSAAWNWIRQSPSRGLEWLGRTYYRSKWYNDYAVSVKSRITINPDTSKNQFSLQLNSVTPEDTAVYYCARDYYGSESYYNRGYYYYGMDVWGQGTTVTVSSASTKGPSVFPLAPSSKSTSGGTAALGCLVKDYFPEPVTVSWNSGALTSGVHTFPAVLQSSGLYSLSSVVTVPSSSLGTQTYICNVNHKPSNTKVDKKVEPKSCDKTHTCPPCPAPEAAGAPSVFLFPPKPKDTLYITREPEVTCVVVDVSHEDPEVKFNWYVDGVEVHNAKTKPREEQYNSTYRVVSVLTVLHQDWLNGKEYKCKVSNKALPAPIEKTISKAKGQPREPQVYTLPPSREEMTKNQVSLTCLVKGFYPSDIAVEWESNGQPENNYKTTPPVLDSDGSFFLYSKLTVDKSRWQQGNVFSCSVMHEALHNHYTQKSLSLSPGK
light: AIQLTQSPSSLSASVGDRVTITCRASPGISSALAWYQQKPGKAPKLLMYDESSQESGVPSRFSGSGSGTDFTLTISSLQPEDFATYYCQQFNDYPLTFGGGTKVEIKRTVAAPSVFIFPPSDEQLKSGTASVVCLLNNFYPREAKVQWKVDNALQSGNSQESVTEQDSKDSTYSLSSTLTLSKADYEKHKVYACEVTHQGLSSPVTKSFNRGEC
notes: SL-061 with YTE half-life extension changes in the Fc
fold improvement in binding affinity at pH 6.0 compared to pH 7.4 [2]: ~10 fold | Kd [3]: 966 pM | koff [3]: 0.000193 s⁻¹ | kon [3]: 200000 M⁻¹ s⁻¹ | Kd [4]: 8080 pM | koff [4]: 0.00179 s⁻¹ | kon [4]: 222000 M⁻¹ s⁻¹ | IC50 (read off the curve) [5]: ~70 pM

B3: SL-062 (antibody, human IgG1, kappa)
heavy: not shown
light: B2 light
notes: Same variable regions as SL-033 with wild-type IgG1 Fc; also called clone 062
binding result [6]: binds | Kd [3]: 3930 pM | koff [3]: 0.000715 s⁻¹ | kon [3]: 182000 M⁻¹ s⁻¹ | Kd [4]: 6540 pM | kon [4]: 190000 M⁻¹ s⁻¹ | koff [7]: 0.00124 s⁻¹

B4: SL-033 (antibody, human IgG1, kappa, L234A L235A)
heavy: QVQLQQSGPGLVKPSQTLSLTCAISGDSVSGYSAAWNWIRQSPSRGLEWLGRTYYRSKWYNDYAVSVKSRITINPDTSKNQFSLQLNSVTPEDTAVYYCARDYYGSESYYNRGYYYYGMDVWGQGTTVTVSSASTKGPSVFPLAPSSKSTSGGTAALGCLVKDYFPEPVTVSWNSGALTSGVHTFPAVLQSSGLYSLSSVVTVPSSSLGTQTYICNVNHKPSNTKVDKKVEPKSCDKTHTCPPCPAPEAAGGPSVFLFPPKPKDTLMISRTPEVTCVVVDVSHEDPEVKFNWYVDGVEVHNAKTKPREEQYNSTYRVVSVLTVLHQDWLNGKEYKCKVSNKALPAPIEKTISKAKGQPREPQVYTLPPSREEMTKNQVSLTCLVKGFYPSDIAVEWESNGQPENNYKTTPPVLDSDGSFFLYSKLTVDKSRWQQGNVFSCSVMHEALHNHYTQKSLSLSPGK
light: B2 light
notes: Anti-TNFRSF25 IgG1 with Fc-silencing L234A/L235A; also called clone 033; SL-033 (L234A/L235A)
binding result [6]: binds | Kd [8]: < 1000 pM | binding result [9]: no binding (tested: about 200 nM (log nM about 2.3)) | binding result (TNFR1 (recombinant)): no binding (tested: about 200 nM (log nM about 2.3)) | binding result (TNFR2 (recombinant)): no binding (tested: about 200 nM (log nM about 2.3)) | IC50 [10]: 70 pM | Response (RU) [11]: 2.19 RU | koff [11]: < 1e-07 s⁻¹ | kon [11]: 243000 M⁻¹ s⁻¹

B5: 033_NH24 biparatopic antibody (bispecific antibody, human IgG1, kappa, L234A L235A)
heavy 1: not shown
light 1: B2 light
heavy 2: EVQLVESGGGSVQPGGSLRLSCAASGFTFSSYGMSWIRQAPGKGLEWISYISSSGGHTYYADSVKGRFTISRDNAKNSLYLQMNSLRAEDTAVYYCARGSGSFDYWGQGTLVTVSSASTKGPSVFPLAPSSKSTSGGTAALGCLVKDYFPEPVTVSWNSGALTSGVHTFPAVLQSSGLYSLSSVVTVPSSSLGTQTYICNVNHKPSNTKVDKKVEPKSCDKTHTCPPCPAPEAAGGPSVFLFPPKPKDTLMISRTPEVTCVVVDVSHEDPEVKFNWYVDGVEVHNAKTKPREEQYNSTYRVVSVLTVLHQDWLNGKEYKCKVSNKALPAPIEKTISKAKGQPREPQVCTLPPSREEMTKNQVSLSCAVKGFYPSDIAVEWESNGQPENNYKTTPPVLDSDGSFFLVSKLTVDKSRWQQGNVFSCSVMHEALHNHYTQKSLSLSPGK
light 2: not shown
Kd [12]: 140 pM
